Data from the DeepSol protein solubility set.

Assay: soluble on expression in E. coli; label from the status in PepcDB or PDB records

Sequence | soluble on expression in E. coli
MSLIQLRPCPKSYTRDQDKATTPAETVRRVRERLASLDISILAETRRVDVGRLGIPVFLSVCGADARAVMPTRKQMGKGASLEQAQASALMELMERYSFFTFWRDMPGMVEATWSEARNRFGDALIPVDEILHSVHDTLSPDDAVRALDLWRWKFFPATDITHGREVWLPLDWFKKLGEFNGSSAGNTEEESILQGSCELVERHVCCLIDRTQPELPTIDPASLDDPVLLELAAAFERNGIRLVLKDFSMGMPVPTVGAIAWDPATFPERSEIVYTAGTSSSPVKAAIRAVTEVAQLAGDFCTGACYEASGLSKYESLDDIAWLVAGPVVALDTLPSVETDDIRDELAALCDGLAATGHTLYSVSTMNPDVGVNTHYNIVPGFHFRERDRNASLGLFIGRILSEEADAGTALAGLSVLEELYPGAHFLPFFKGMLALRAESHHEAISFFEQAEPLQPEADSRGLAAFYGAYVRTLLTDWQGALPGLDRAVTECPEMKEYFNLRGVCHFKLGDYAQAAQNFAQVLHIDKGAVVDLANLGLCHKFMGDTEKAEELLSAALEIDPGLDFARRHLDEMREGHHHHHH | soluble
MMIMLDPFSEKAKELLKGFGSINDFMDAIPKIVSVDDVIERIRVVKNEKLIDKFLDQDNVMDLAQFYALLGALSYSPYGIELELVKKANLIIYSERLKRKKEIKPEEISIDVSTAIEFPTEDVRKIERVYGKIPEYTMKISDFLDLVPDEKLANYYIYEGRVYLKREDLIRIWSKAFERNVERGVNMLYEIRDELPEFYRKVLGEIQAFAEEEFGRKFGEIQGGKLRPEFFPPCIKNALKGVPQGIRNYAITVLLTSFLSYARICPNPPRRNVRVKDCIKDIRVITEEILPIIIEAANRCSPPLFEDQPNEIKNIWYHLGFGYTANPSLEDSGNSTWYFPPNCEKIRANAPQLCTPDKHCKYIRNPLTYYLRRLYLEGRRNAPKRGNKRGKKELLHQLEHHHHHH | soluble
MSLNANVVIAGPGTGKTTSISQKYLELVQSGVDPNDILCITFTNKAAENMRSRIIKALERSGTQIDLSVINVYTFHSFANSAIRRYGYRGIVNQNFLRKIIFDYLIRNSVFNYEREYLISRIVPQLENIIRYLGSFGIDRIENPEETAASLREIFKKRREEKKIKEDLEEITAIFIHLSKIMDEYRNAKEARGVIDYNDMIIKFLELEKKPHFKYVLVDELQDASDLQARLIKSVADDIYAVGDRKQAIFGFQGGGFGNFSNHFPDAHVNYLLTDHRNSEAVLNYAREFFLKNTKYPDQYRTELDQLKASKARGGSVEVVSGEEEAVLDLLKRFPEGKVGILARRNDQVIKISEILDSNGMRYASSALSAASDRAKKDVIAFLKMIIYGDMQSVIDALFTPFSGLQISEAYDIKESLISGNTSLQNYDLLNNLRRTYSAPGINGLIDMFEKLIIPIALAFDQRYFLTVERIYKNLREYLDFYGNEDRSDLINYLEICDDEVQEIDADERISVLTVHKAKGLEFDHVIYLPKAKKDEKMSAVDLVAEQMIRLKTEGHHHHHH | soluble
MGSDKIHHHHHHMTNTIPNWIKLNNEIMIQKDGKYQFEKDKEAVHSYFVDYINQNTVFFHDLKEKLDYLIKNDYYEEEFLSKYTFEQIKSIYKIAYSYKFRFPSFMSAFKFYNDYALKTNDKTKILERYEDRVSIVALYCADGDYEKAVEEVHTMMKQEYQPATPTFLNAGRKRRGEMVSCFLLEVGDSLNDISRAIDISMQLSKLGGGVALNLNKLRAKGEAIKDVENATKGVVGVMKLLDNAFRYADQMG | not soluble
MYKQIILACDGSEHALRAAEHATYIAKCSEETNVEVVYVVDNRTAKSDIIQGQTDLETISASRKDKLKEIEGLLKKENISYTITILHGDPGDTIVQYVNTGDIDLVIAGSRGLNTLQEMVLGSVSHKIAKRVKCPVMIVK | not soluble
MGSDKIHHHHHHMSIRIGISGWRYARWRGTFYPTGLAQRRELAYAGRCFPSVEINGSFYSLQRPESYQSWHDETPDDFVFAVKGPRFVTHMKRLRDCEQALANFFASGVLRLGEKLGPILWQLPPTLRFDDAVLDAFLSSLPRDTEAALALARKRDTTLMHGRTALSIDRKRPLRHALEMRHPSFCDPSCMKLLRKHKVGVVVADTAGKFPYLEDVTADFVYLRLHGDAQLYASGYSDHALDRWGERIAAWAAGGEPSDAQRVGPRASKRARRDVYCYFDNDMKVHAPFDARGLMQRLDLPTDCPAREEVV | not soluble
MVNRLINSRSPYLRKAANQPVEWFEWGEEAFAKAKKEDKPILLSIGGVWCHWCHVMAKESFENEEIAEMINRNFVAIKVDRDERPDIDKRYQEFVMATTGSGGWPLTVFLTPDGKPFFGGTYFPPEDRYHLPGFKTVLRKIAEMWRHDRERLLKSAEELTEAVRRYAE | not soluble
TVVNDPSCESVVTTPQHSLRDANSPAGLLSIAEETLAEFLSKATGTAVDWVQMPGMKPGPDSVGIFAISQRCNGVAARACGLVSLEPMKIAEILKDRPSWFRDCRSLEVFTMFPAGNGGTIELVYMQTYAPTTLAPARDFWTLRYTTSLDNGSFVVCERSLSGSGAGPNAASASQFVRAEMLSSGYLIRPCDGGGSIIHIVDHLNLEAWSVPDVLRPLYESSKVVAQKMTISALRYIRQLAQESNGEVVYGLGRQPAVLRTFSQRLSRGFNDAVNGFGDDGWSTMHCDGAEDIIVAINSTKHLTNISNSV | soluble
GPGGSPGGLQKRHARVTVKYDRRELQRRLDVEKWIDGRLEELYRGREADMPDEVNIDELLELESEEERSRKIQGLLKSCTNPTENFVQELLVKLRGLHK | soluble
PRLEFEKPVIELQTKIAELKKFTQDSDMDLSAEIERLEDRLAKLQDDIYKNLKPWDRVQIARLADRPTTLDYIEHLFTDFFECHGDRAYGDDEAIVGGIAKFHGLPVTVIGHQRGKDTKENLVRNFGMPHPEGYRKALRLMKQADKFNR | not soluble
MGSDKIHHHHHHMNSILINHKAKADISISCFGEVLWDCFPDGKRVGGAPLNVCVRLNALGIKGSMISAVGDDPLGHELVSFIDDRGVNRDCIAIDPVKSTSTVQVTLDKNGSASYDIVADTAWDNIALTEDIIEQVNRTDVLVFGSLIGRNDVSLNTLTALVKLASFSVFDVNLRAPHYQIDSVINLMKKADFIKLNDDELYEIAKAMGSPFHSLEQNLDFVAIQTNTDYLCVTKGSHGALLSIGGQKYYNSGYLVNVVDTVGAGDSFLGSLLYQLCSDSNPQYAIDFACAVGAMVAESHGATPMITLNEIQAFMHPV | not soluble
MGSDKIHHHHHHMTLINKLKQHLSDSQITQAQLAREAGVNAGALSAYLNDNYKGNIADVEAKLAAYLEKKAVQAREFVEAPAFIETATSRQIFKTLEFAQIANCLATVYGMSGVGKTKAIQEFAKSHANVWLVTASPSRSSLSEILYEIALELGISDAPRRKGTLSRLIARKIKGTEGLLIVDEADHLPYEALEELRIMQEEAGIGLVLVGNDKVYTRMKGGISPSHEYARLWSRVAKNTSIQKTKKADTQAVAQAWGLETDEEALKVMQSITETGGGLRILTQTYACRNGSKRIWQVD | not soluble
MHTTSSPNETLSSWDSSARREQASKNNIYVTLSAKQHPRILQIYGGAYYNPKLERLLENIVRKLTVGLQNSYKSYSLTILNTQSVNAFALPNGSIYITRGMLTLANDSSEVAAILAHEIAHITANHGILRLQKKAELKTTERISSNLLSLSGEKIHKSIENKRKLAQFSRNQELQADSIALEMLKQAGYDPFSLPRFLQSMAAYSLFRSIPGSQNAPLGFLITHPTTPQRIRLAIEKAHKISSANTGNTDRDAFLKSIDGMIFGGSPHTGFVQNNQFIHPQLGITFSVPQNFIIENSAHTVWASGPDKIAIRFDAIPHPAEISASEYLQSGWLAGLDKSSVHPFIIQGLPGAHARARNAQWQFDVVVILFNNHVLRFLTAAPHDSQNFAEIAEKTVQSFRFLSSSQLKKLKPLRIRIVRVQKGESVASLAKKMQNIPHNEKLFRILNSLSPSQALQTGAAVKIITQLEHHHHHH | not soluble
EQELSYFAVFRRVYVQRDEVRQIASIVQRGERDHTFRVGSLIFHTIGQLLPQQMQAFHSPKALFPVGYEASRLYWSTRYANRRCRYLCSIEEKDGRPVFVIRIVEQGHEDLVLSDISPKGVWDKILEPVACVRKKSEMLQLFPAYLKGEDLFGLTVSAVARIAE | not soluble
MAHHHHHHMHAVPKDDAEAPLSNTESRGRVALIDTSGYASDMNISAFVPQHAMKPYRVLAAMEIVRSLKIDAHCRTVVPPLVKVEELMAYHTDTYLANLGLHSCRSWLWNAETSKVFFSGDCPPVEGLMEHSIATASGTLMGAVLLNSGQVDVAVHWGGGMHHSKCGECSGFCYVNDIVLGILELLKCHDRVLYVDIDMHHGDGVDEAFCTSDRVFTLSLHKFGESFFPGTGHPRDVGYGRGRYYSMNLAVWDGITDFYYLGIFEHALHSIVRRYSPDAIVLQCGADSLAGDRLGLLNLSSFGHGQCVQAVRDLGIPMLALGGGGYTIRNVAKLWAYETSILTGHPLPPNTVLPVAEMPLSGWLFQDSPLLIVAQDRSNHVLPGLHCQRAYQMMTEQIDRHVPHIQPHPRLQKAFTAAEAADKQVEDGTTAVEDFK | not soluble
MYRLQIEKIRGFRDFYPEDMDVEKFIFKTAEEAAEAFGFRRIDFPSLEYLDLYRIKSGEELLQQTYSFVDKGGREVTLIPEATPSTVRMVTSRKDLQRPLRWYSFPKVWRYEEPQAGRYREHYQFNADIFGSDSPEADAEVIALASSILDRLGLQDIYEIRINSRKIMEEIIGGMTSSDPFSVFSIIDRYHKISREEFVDQLRSAGIGEDGVSMIADLCSGTRGIDEMARITGKSSEEIARMAAVEDLLASYGVKNVRYDFSIVRGLSYYTGIVFEAYDRSGQFRAILGGGRYDNLASLMSGESVPAVGFGMGDAVISLLLKRENVQIPREKKSVYICRVGKINSSIMNEYSRKLRERGMNVTVEIMERGLSAQLKYASAIGADFAVIFGERDLERGVVTIRNMYTGSQENVGLDSVVEHLISQATLEHHHHHH | soluble
MVVKFTKSEALHKEALEHIVGGVNSPSRSFKAVGGGAPIAMERGKGAYFWDVDGNKYIDYLAAYGPIITGHAHPHITKAITTAAENGVLYGTPTALEVKFAKMLKEAMPALDKVRFVNSGTEAVMTTIRVARAYTGRTKIMKFAGCYHGHSDLVLVAAGSGPSTLGTPDSAGVPQSIAQEVITVPFNNVETLKEALDKWGHEVAAILVEPIVGNFGIVEPKPGFLEKVNELVHEAGALVIYDEVITAFRFMYGGAQDLLGVTPDLTALGKVIGGGLPIGAYGGKKEIMEQVAPLGPAYQAGTMAGNPASMASGIACLEVLQQEGLYEKLDELGAMLEKGILEQAAKHNIDITLNRLKGALTVYFTTNTIEDYDAAQDTDGEMFGKFFKLMLQEGVNLAPSKYEAWFLTTEHTKEDIEYTIEAVGRAFAALADNK | not soluble
MGSDKIHHHHHHMDPRLLPLLSCPRHPTVTLTVEQVERVVNGAIVSGRLRCPVCATTYLIKDGILDMIGQHRPTSAAQVVNEVPVAAWAYERTWRPFALSLLSGEQFPLTRELKLITGLAGAERGGLMVDVGCSNGLYARALEHVRRQRGAGGFVVGIDLSMAMLQEAQRRARHEGLSISFIRASAQAMPFADGTVDALVMGGSLNEIGDIPAALSEWRRLLSPQGRGVMMSLVAASTPIGQGIQQLLASGGLQFPSLAELNHYFTAAGLRLRAQWQYGIVVFSVLQ | not soluble
MSRDGSVAPKERINIRYVPATGDTQEDVELPLSMMVVGDFTARADETPIEERTPINIDKDNFNDVLEGMSPNVKVNVENRLSDEEGAQIGVDLTFQNMKDFSPEAIAKSVPELNSLLELREALVALKGPLGNVPAFRKKIASVLQDEEARKKLLDELSIGNDQDAKEE | soluble
